Assay: soluble on expression in E. coli; label from the status in PepcDB or PDB records

For “MAHAAAVEENQLQSLKDVAKQAPVHRKLDIQEWKTAEGAKVLFVEAHELPMFDLRLTFAAGSSQDAGTPGLSMLTNAMLNEGVPGKDTTAIAAGFEDLGASFSNGSYRDMAVAGLRSLSEADKRTQALKLFEQVIGQPTFPEDALARIKNQVLAGFEYQKQNPGKLAGLELFKRLYGEHPYAHSSDGDEKSVPTISREQLQAFHKKAYAAGNVVIALVGDLSRQEAEAIAAEVSKALPQGPALAKTVQPETPKPGLTHIDFPSEQTHLMLAQLGIDRQDPDYAALYLGNQILGGGGFGTRLMDQVREKRGLTYGIYSGFTAMQARGPFMINFQTRAELSEGALKLVQDIVRDYLANGPTQKELDDAKRELAGSFPLSTASNADIVGQLGAIGFYGLPLDYLESFLKQVEGLSVEQVRTAMAKHLDADAFVIVSAGPSVPQKLEHHHHHH”, which “soluble on expression in E. coli” value is on record?
Its value is “not soluble”.

Which “soluble on expression in E. coli” value does the source give for “MKILLRNALITNEGKTFPGSVMIDGAFISRIIEGELPADDNLSADEVIECSGLRLFPGCIDDQVHFREPGLTHKATIASESRAAVAGGVTSFMDMPNTNPPTTMWERLLEKRQIGADTAWANYGFFFGGTNDNIDEIKRVDKHLVPGLKLFLGSSTGNMLVDNKETLEKIFGECDLLIATHCEKEEIIRANKEHYKAKYGNDLDIHFHPLIRSEEACYRSSAEAVELAERMNARLHILHLSTEKELSLFRNDIPTAQKRITSEVCVHHLWFSDTDYGRLGNRIKWNPAIKKESDREALRAAVRNGRIDIIATDHAPHLLREKEGSCLQAASGGPLVQHSLLALLELCNQ” here?
The value was “not soluble”.

Which “soluble on expression in E. coli” value does the source give for “MGSDKIHHHHHHVPRVRTVKEDHRAGVWCARGMTGLLRRLHAVLDEFNAAYPWDHNAYYHRWILRQLPPRFGRALDAGSGSGDLARLLAGRADRVCGIDIDPVITARARELTDPAAPVVFTVGDVLTDTPAGPYDVVTCVAAVHHMPLAEALTCFRDLLAPGGTLVVVGLYRAHDPIDVLLDGVSVVLNPLIGWVRHRGRRAPRPVSMTAVTTPATMTFAEIVAEARRVLPRARLRRRLLWRYTLVWRKP” here?
Its value is “not soluble”.

For “GSHMTALDWRSALTADEQRSVRALVTATTAVDGVAPVGEQVLRELGQQRTEHLLVAGSRPGGPIIGYLNLSPPRGAGGAMAELVVHPQSRRRGIGTAMARAALAKTAGRNQFWAHGTLDPARATASALGLVGVRELIQMRRPLRDIPEPTIPDGVVIRTYAGTSDDAELLRVNNAAFAGHPEQGGWTAVQLAERRGEAWFDPDGLILAFGDSPRERPGRLLGFHWTKVHPDHPGLGEVYVLGVDPAAQRRGLGQMLTSIGIVSLARRLGGRKTLDPAVEPAVLLYVESDNVAAVRTYQSLGFTTYSVDTAYALAGTDN”, which “soluble on expression in E. coli” value is on record?
Its value is “soluble”.

Which “soluble on expression in E. coli” value does the source give for “AKGSTNHRALTGVIFEPFEEVKKELDLVPTVPQASLARQKYVDESESAVNEQINVEYNVSYVYHAMFAYFDRDNVALRGLAKFFKESSEEEREHAEKLMEYQNKRGGKVKLQSIVMPLSDFDHADKGDALHAMELALSLEKLTNEKLLNLHSVATKNGDVQLADFVETEYLGAQVEAIKRISEYVAQLRRVGKGHGVWHFDQMLLHEGGDAA” here?
The value was “soluble”.

With “SRENLGRIQFSVGYNFQESTLTVKIMKAQELPAKDFSGTSDPFVKIYLLPDKKHKLETKVKRKNLNPHWNETFLFEGFPYEKVVQRILYLQVLDYDRFSRNDPIGEVSIPLNKVDLTQMQTFWKDLKP” as the sequence, how does the “soluble on expression in E. coli” value read?
The value was “soluble”.

Which “soluble on expression in E. coli” value does the source give for “MSQLTEFISCIPVVNEEQNEEDERGLCKIQIEDGAMLETLDENSLSGLRIEKMLVSEGTGIFSKSSFGINDLRIFTGENIDEESKKYVWYELLKMLTGHKVYIASLDEKVVFTKWTCRMQDDEVWKVVMELESSAIIRKIAELTLHPVKKGEIDLFEMADKLYKDICCVNDSYRNIKESDSSNRNRVEQLARERELLDKLLETRDERTRAMMVTLLNEKKKKIRELHEILRQNNIKLSDDDVLDSA” here?
The value was “soluble”.

With “GPGSMRRFPPPPPTRTCAHERVKHAVPIPFRVTCFWPAMSAAPSEAFAEAETMEQLRLKGNACFADDPAEAAKYYTQAVQLYEERHGEDAACSLDEFTKSAGNALTCLFKMGETEQCAALAVRVLASNPILAKANAFYGRCALVDPSLDSVSTGFGTASAAALVHLCRAIYELPALEPNTRENIDEALTRLIGERVSVTETFARSPEAGVKLVRGQCGVGVEAIRTLPPLVEVVSLLTPFSVGAFEDFAGKGCCVECSKPIGLDVADAAAEEPNEDDGDEENDKDEGNVKATKEKPSTCTACNMVVYCSPACADAHREQHERFECARMTRLSDMMQGIEARKLDVPEQFFELAYHCITTLAGIKAKRAGHERVLTLTAHVDEVIQSLHPIGPLMCDLFKGEERPATLYTIIGVLCCNALELADPSGLGVAQALHAGNSIASFFNHSCTPNCAIDTVRHAIVTTRTIHVGEELSIAYIPQLYWPTRLRRERLSESYYFVCRCQRCESSNKDPFERALSMELPTARREATKHFHPIVQTTCATVRSRMVGDVSQKDADELSKLLRELSTHLFPFHYLCHEVRNCLSFVYAVLGQTRECLCSCLDELLMWECILPGALPVKRMKIENALQCVQGFGANVSDCSAALLPHLSRLALVYDAEGPI” as the sequence, how does the “soluble on expression in E. coli” value read?
The value was “not soluble”.

For “DGFKIVQFSDAHLSDYFTLEDLKTVILTINESKPDLIVFTGDIIDNPDTYQHHQAVIPLLRKLNAPFGKLCIYGNHDHGGYGTAVYKSLMTAGGFTVYRNGYQTLSLADGSKIEIASLDDFNAGKPRFMQGTLSRLSDRLFSILLVHEPDAALKTTDYPVNLQLSGHTHGGQIQLPFYGPIITPPYGKVYTEGMYQTGSTHIYVNRG”, which “soluble on expression in E. coli” value is on record?
Its value is “not soluble”.

With “MGSDKIHHHHHHMDRYRGNAEAVKNLVRGHAVHRDVYVDKEVFDLEMEQLFPNSWVYVGHESQLKDPGDYITSKIGHQPILISRHKNGTIHVLHNRCPHKGVKIASEPCGNTGKFFRCPYHAWSFKTDGSLLAIPLKKGYEGTGFDNDRAKDGLPRVENVHIYRGFIFARLSDTGLSFEDYFGDSLSTIDNMVDRSPKGEVEIIAAPIRYMHTCNWKMLVDNQTDTCHPMVAHESSAGTAVSVWEREKHRFTETPMAVQLYAPFMSPYEFYESAGIRVWPNGHGHSGVSGSIHQDYDDVDGYLEMMVEAYGETRAREILGDIRHNTLYFPNVMVKGPVGILRNFIPVAVDRTLVESWAFRLVGAPDKIYERALMYNRFINAPTSIVGHDDLEMYERAQEGLLSDANEWINLRRLYEEGEPEDVTEVVNGTSERQMRNTFYAWRKFMVQGMEQKQEVSA” as the sequence, how does the “soluble on expression in E. coli” value read?
Its value is “not soluble”.

For “MRYERIKYILLFSLMHLVYSNSTFESNPEVRNKSNIYDLPPLLDVTSVNEETPIVKRPINERIENLEFDPRFEIDQAKLEISEDKLGSGFFGEVCYGLLSMRTSNTETDTLQKLSVAVKQSNDPTQENQEKMIEDETKLMCAIGRNPNILAIIGAVTANSGSARNLLIVEFVECGDLLKFLEEKKSIFKDELVYEKNGYLLPKSIRRKTYMFNENEDDVIEESLDSLCTSDLLSFSYQIAEGMEYLASIPCVHRDLALRNVLLNKNKTIRIADFGLARKYQVDGYYRITKGVGTPMPARWMAPEVMREGKCTEKSDVWSYGVSLYEMFSLGELPYSNVSNSDVFEHVVQGNQLPMPQYCHPKMYDRMKQFWNFDATFRPSFSKCVEFFEEHLSVSATNLLEQIQKTLKSEAERQSKLEDWIRRD”, which “soluble on expression in E. coli” value is on record?
The value was “not soluble”.

For “MNPNHNEGLLELYTQAISLEALKDAEQFLENSLLGKDAQVERLLAQVLIEEQQIETNRKKIAQLRIEKEELEFDCANSDLKSLEQMQAERDELQRKCQPGQHTKSNHKSSEQLLRMKKETDALRAYMKKISQFED”, which “soluble on expression in E. coli” value is on record?
The value was “not soluble”.

For “MGSDKIHHHHHHMAVLITRPGERGERLVEMLNKAGIMALHLPLISIIAGQELNRLPNKLQQLNCGDYVVAVSKNAVEYAQKTLSAVGFCWRSDLYYFTVGQRTAEYFASQIENSVYYPVEQESSEGLLNLPQMQDLQARNILILRANGGREFFTEQAILRGAKVETLECYQRMPIEYNKLEKISLCQRIGVDTIVVTSQEMLNYLVKLVPTNETGWLFSCRLVTVSQRIAALAKSVGWTNIVVADKADNLSLFLALQQ”, which “soluble on expression in E. coli” value is on record?
The value was “not soluble”.

For “MSLITCSKCSRRAVIFQRHANRHLCKRHFIEDFERRVKLAVKKYDMIQKGDRIAIALSGGKDSVTLAFVLNKLYGFRSDLEFFAITIDEGIAGYRPPTVEIARKVTEQLGMEHLVVSFEENFGMTLDEMVKRGDKKPCTYCGVFRKYLLNRTAREMGATKLATGHNLDDETQTILLNFLNADMERMARLVPQRVQEGLVVRIKPFRYVYEKEVVVYGFLHELPMDFDECPYSHFPVRAAVRDFLYDFENKYPGRKFSVMSSFEKLIPCLKEIYPQIDLNRCERCGEPTPRRICQACKLLEELRGVDEGHHHHHH”, which “soluble on expression in E. coli” value is on record?
Its value is “not soluble”.

For “MGHHHHHHSHMLAWHVLMGNQVIWKSRDVDLVQSAFEVLRTMLPVGCVRIIPYSSQYEEAYRCNFLGLSPHVQIPPHVLSSEFAVIVEVHAAARSTLHPVGCEDDQSLSKYEFVVTSGSPVAADRVGPTILNKIEAALTNQNLSVDVVDQCLVCLKEEWMNKVKVLFKFTKVDSRPKEDTQKLLSILGASEEDNVKLLKFWMTGLSKTYKSHLMSTVRSPTASESRN”, which “soluble on expression in E. coli” value is on record?
The value was “not soluble”.

Which “soluble on expression in E. coli” value does the source give for “VTPSEGNAPLPELHNTVVVAAFEGWNDAGDAAGDAVAHLAASWQALPIVEIDDEAYYDYQVNRPVIRQVDGVTRELQWPAMRISHCRPPGSDRDVVLMCGVEPNMRWRTFCDELLAVIDKLNVDTVVILGALLADTPHTRPVPVSGAAYSAASARQFGLQETRYEGPTGIAGVFQSACVGAGIPAVTFWAAVPHYVSHPPNPKATIALLRRVEDVLDVEVPLADLPAQAEAWEREITETIAEDHELAEYVQTLEQHGDAAVDMNEALGNIDGDALAAEFERYLRRRRPGFGR” here?
Its value is “soluble”.

Which “soluble on expression in E. coli” value does the source give for “MSLIRSKYAFLQKLTRDLKMKSINIGEELEGATPPSVFIGSWNYPKVYAGPMIAPVQEEVEIFDSPERWIPERKTQEEIIDYRLNLVRGKQLVGVRDLDNHLVEKLQEISLSSGAIESEAQFRRKPRGLFFSEEQTPHGPSAVLENFEIENVKWDRELERAYHDTDLRAREAIVELHRKGTPFSAVQKALSVGALGEGKRRKLVPTRWSITACDSTLADHFLERVLEYEPIDTFRVHEFESLKNHYLILLTPSEWQYEWMEAFMKRDGRAMIFSDHETGKGKREYSRVGGCYYSAKMAVLDALDREEKQAGAIILREAYPGYVPLGVFNVRENVKNAMDTEPTMFNDLRGALEFIDSKLKLGLEAFRVRSNLLKELEVSRQTTLDSFFREGHHHHHH” here?
Its value is “not soluble”.

For “MGSDKIHHHHHHMTNPTLAPQSDEYQQIHNGIVQLLDTARTQTVRSINTIMTATYWEMGRRIVEFEQGGEARAAYGEQLIDRLSQDLSQRYKRGFSASNLWQFKKFYLYFQKIEILQTVSGESLHLAQLAKSFPLPWSAYVRLLSVKNPNARTFYEKETLRNGWSVRQLDRQIATQFYERTLLSHDKSAMLQQPAPAEPNVLPEQAIRDPFILEFLNLKDEYSESDLEDALLSHLMDFMLELGDDFAFVGRQRRLRIDDSWFRVDLLFFHRRLRCLLLVDLKVGKFGYADAGQMNMYLNYAKEHWTMPGENPPVGLVLCAGKGAGEAHYALTGLPNTIMASEYKVQLPDEKLLTDELIRSQTMLETQLTRGGSLTTEKN”, which “soluble on expression in E. coli” value is on record?
The value was “not soluble”.

For “MKLVKLSLVAALAAGAFSAANATPLEEAIKDVDVSGVLRYRYDTGNFDKNFVNNSNLNNSKQDHKYRAQVNFSAAIADNFKAFVQFDYNAADGGYGANGIKNDQKGLFVRQLYLTYTNEDVATSVIAGKQQLNLIWTDNAIDGLVGTGVKVVNNSIDGLTLAAFAVDSFMAAEQGADLLEHSNISTTSNQAPFKVDSVGNLYGAAAVGSYDLAGGQFNPQLWLAYWDQVAFFYAVDAAYSTTIFDGINWTLEGAYLGNSLDSELDDKTHANGNLFALKGSIEVNGWDASLGGLYYGDKEKASTVVIEDQGNLGSLLAGEEIFYTTGSRLNGDTGRNIFGYVTGGYTFNETVRVGADFVYGGTKTEAANHLGGGKKLEAVARVDYKYSPKLNFSAFYSYVNLDQGVNTNESADHSTVRLQALYKF”, which “soluble on expression in E. coli” value is on record?
The value was “soluble”.

With “MSEISIKRAHENEKDAEEDMEPATKKIKSDDVTEEQEKPEIVEKAEKVKSMKKEEAGSLKSPPNDEMESEFTHVLNELSKQKETIKKLLDDLRADNKKRKTHNIRTIFQRKD” as the sequence, how does the “soluble on expression in E. coli” value read?
The value was “not soluble”.
